± gives the uncertainty stated by the source.
Test: self-splicing fitness, log relative to wild type (ln ratio); higher = more splicing; Tetrahymena group I intron in knt gene, E. coli kanamycin selection, DiMSum; sequences stand for … in CUCUCU…GGAGGGAAAAGUUAUCAGGCAUGCACCUGGUAGCUAGUCUUUAAACCAAUAGAUUGCAUCGGUUUAAAAGGCAAGACCGUCAAAUUGCGGGAAAGGGGUCAACAGCCGUUCAGUACCAAGUCUCAGGGGAAACUUUGAGAUGGCCUUGCAAAGGGUAUGGUAAUAAGCUGACGGACAUGGUCCUAACCACGCAGCCAAGUCCUAAGUCAACAGAUCUUCUGUUGAUAUGGAUGCAGUUCACAGACUAAAUGUCGGUCGGGGAAGAUGUAUUCUUCUCAUAAGAUAUAGUCGGACCUCUCCUUAAUGGGAGCUAGCGGAUGAAGUGAUGCAACACUGGAGCCGCUGGGAACUAAUUUGUAUGCGAAAGUAUAUUGAUUAGUUUUGGAGUACUCGUGGUCG
Outline: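 Library with all eight P1ex-region intron nucleotides randomised, intron inside the knt kanamycin-resistance gene on pET-22b(+), in E. coli BL21(DE3). Cells grew overnight at 37°C or 30°C on LB agar with or without 25 μg/mL kanamycin (plus 100 μg/mL carbenicillin, 50 μM IPTG, 0.2% rhamnose), in six replicate transformations. Pooled colonies were amplicon-sequenced on Illumina HiSeq 2500. DiMSum fitness is the error-weighted combination of wild-type-normalised replicate fold changes, kanamycin versus none.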

Sequence	self-splicing fitness (ln) (30 °C)	self-splicing fitness (ln) (37 °C)
CGUCAGCAAUAUUACGAAUA	-2.58 ± 0.16	-1.98 ± 0.16
GGGAAGCAAUAUUACGCUGG	-2.97 ± 0.23	-1.73 ± 0.18
GCCUAGCAAUAUUACGGAAU	-1.23 ± 0.074	-0.307 ± 0.093
AUCAAGCAAUAUUACGGCUU	-2.87 ± 0.13	-1.54 ± 0.14
GCUCAGCAAUAUUACGUCGC	-1.95 ± 0.17	-0.137 ± 0.16
GUCCAGCAAUAUUACGCCAU	-2.78 ± 0.15	-1.48 ± 0.14
GAUAAGCAAUAUUACGCGAU	–	-2.82 ± 0.26
ACUCAGCAAUAUUACGACUU	-0.301 ± 0.054	0.0543 ± 0.073
CGAAAGCAAUAUUACGCUGC	-3.68 ± 0.23	-2.69 ± 0.19
CGAAAGCAAUAUUACGGUCU	-0.258 ± 0.071	-0.209 ± 0.089
CAUGAGCAAUAUUACGCGGG	-1.45 ± 0.14	-2.46 ± 0.28
AUGGAGCAAUAUUACGGCUU	-2.98 ± 0.29	-1.83 ± 0.38
AAUAAGCAAUAUUACGAGGC	–	-2.31 ± 0.32
ACCUAGCAAUAUUACGCCUG	-2.69 ± 0.19	-1.66 ± 0.22
GCUCAGCAAUAUUACGCAUA	-1.48 ± 0.18	0.283 ± 0.17
UAUCAGCAAUAUUACGGCAC	-2.52 ± 0.17	-0.753 ± 0.14
AACCAGCAAUAUUACGCUAU	-2.11 ± 0.094	-0.398 ± 0.093
AGGUAGCAAUAUUACGGUGG	-3.787 ± 0.027	-2.8 ± 0.04
UGGCAGCAAUAUUACGAGAU	-1.46 ± 0.21	–
CCCUAGCAAUAUUACGGCGG	-2.6 ± 0.14	-2.42 ± 0.18
GCCGAGCAAUAUUACGAAAU	-3.1 ± 0.39	-1.62 ± 0.41
CCUCAGCAAUAUUACGUAAG	-0.219 ± 0.059	0.292 ± 0.082
UGUAAGCAAUAUUACGUAUG	-1.11 ± 0.093	-0.727 ± 0.12
GGGUAGCAAUAUUACGGUCC	-1.34 ± 0.25	–
GCCUAGCAAUAUUACGAUUA	-3.39 ± 0.29	-1.63 ± 0.18

Sequence	self-splicing fitness (ln) (30 °C)	self-splicing fitness (ln) (37 °C)
CAGCAGCAAUAUUACGGCGC	-2.93 ± 0.35	-1.51 ± 0.2
AUGUAGCAAUAUUACGCUUC	-2.5 ± 0.23	-2.2 ± 0.28
GCAGAGCAAUAUUACGACUA	-2.45 ± 0.27	-2.12 ± 0.24
AACAAGCAAUAUUACGCUAC	–	-3.21 ± 0.4
CGCUAGCAAUAUUACGCAGC	–	-2.8 ± 0.33
CUUUAGCAAUAUUACGUAUC	-3.56 ± 0.35	-3.21 ± 0.4
ACAAAGCAAUAUUACGUCUA	-2.1 ± 0.083	-0.824 ± 0.086
ACUGAGCAAUAUUACGUCUC	-3.61 ± 0.2	-3.51 ± 0.33
CUUGAGCAAUAUUACGACCA	-1.41 ± 0.32	–
ACUUAGCAAUAUUACGACCA	-0.584 ± 0.12	-1.01 ± 0.12
ACGGAGCAAUAUUACGCGAC	-2.45 ± 0.21	-2.55 ± 0.41
GUAGAGCAAUAUUACGGUGC	-1.15 ± 0.13	-1 ± 0.19
AAGCAGCAAUAUUACGUGUG	-2.67 ± 0.083	-1.92 ± 0.11
UCCCAGCAAUAUUACGCCGC	-4.73 ± 0.32	-3.05 ± 0.27
UUACAGCAAUAUUACGCGCG	-0.121 ± 0.099	0.0717 ± 0.1
GGCGAGCAAUAUUACGAGUA	-1.9 ± 0.35	-1.99 ± 0.22
GGUAAGCAAUAUUACGGGUU	-1.82 ± 0.076	-1.69 ± 0.11
AGGUAGCAAUAUUACGGAGC	-4.047 ± 0.034	-2.5 ± 0.04
CGUCAGCAAUAUUACGUAUG	-0.163 ± 0.12	0.188 ± 0.13
GGUCAGCAAUAUUACGAUGG	-1.34 ± 0.076	-0.299 ± 0.1
GAACAGCAAUAUUACGAACC	-1.6 ± 0.12	-0.809 ± 0.13
CGUGAGCAAUAUUACGCCCA	–	-2.03 ± 0.46
CUGCAGCAAUAUUACGGUGC	-3.97 ± 0.24	-1.96 ± 0.23
CGCCAGCAAUAUUACGGAUA	-1.77 ± 0.18	-1.32 ± 0.21
AUCCAGCAAUAUUACGACCC	-1.24 ± 0.071	-0.202 ± 0.089
